Reference: patent publication US20110171242A1 (published 2011)
Positions count from the first letter of the chain named. Numbers in names are those of the source.

T1: LTα1β2 complex from II-23.D7 cells (human, UniProt P01374 35-205; Q06643 1-244)
T1 construct: also called LTβ (33 kDa) and LTα (23-25 kDa) complex
T1 sequence (looked up) 1: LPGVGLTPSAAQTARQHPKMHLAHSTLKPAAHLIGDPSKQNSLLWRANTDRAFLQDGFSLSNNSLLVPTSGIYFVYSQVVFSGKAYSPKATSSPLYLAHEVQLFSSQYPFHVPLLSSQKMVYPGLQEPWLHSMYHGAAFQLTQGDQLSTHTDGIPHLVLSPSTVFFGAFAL
T1 sequence (looked up) 2: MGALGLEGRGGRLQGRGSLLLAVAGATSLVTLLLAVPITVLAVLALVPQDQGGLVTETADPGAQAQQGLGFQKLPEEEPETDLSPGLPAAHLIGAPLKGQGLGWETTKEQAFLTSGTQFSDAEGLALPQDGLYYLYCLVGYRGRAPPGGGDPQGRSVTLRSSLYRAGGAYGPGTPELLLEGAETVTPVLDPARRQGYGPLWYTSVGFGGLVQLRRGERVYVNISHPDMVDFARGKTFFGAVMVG

T2: TNFR60:Fc (human, UniProt P19438 30-211, limits assumed)
T2 construct: Previously described construct (Crowe 1994); also called TNFR:Fc; TNFR1-Fc; not shown: Fc region of human IgG1
T2 sequence (looked up): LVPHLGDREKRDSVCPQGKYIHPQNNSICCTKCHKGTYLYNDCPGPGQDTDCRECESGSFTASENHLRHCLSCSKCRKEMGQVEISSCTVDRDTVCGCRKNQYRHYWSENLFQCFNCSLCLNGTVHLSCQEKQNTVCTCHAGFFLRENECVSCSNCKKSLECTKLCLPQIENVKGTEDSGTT

T3: TNFR1 on normal human dermal fibroblasts (human, UniProt P19438 30-455)
T3 sequence (looked up): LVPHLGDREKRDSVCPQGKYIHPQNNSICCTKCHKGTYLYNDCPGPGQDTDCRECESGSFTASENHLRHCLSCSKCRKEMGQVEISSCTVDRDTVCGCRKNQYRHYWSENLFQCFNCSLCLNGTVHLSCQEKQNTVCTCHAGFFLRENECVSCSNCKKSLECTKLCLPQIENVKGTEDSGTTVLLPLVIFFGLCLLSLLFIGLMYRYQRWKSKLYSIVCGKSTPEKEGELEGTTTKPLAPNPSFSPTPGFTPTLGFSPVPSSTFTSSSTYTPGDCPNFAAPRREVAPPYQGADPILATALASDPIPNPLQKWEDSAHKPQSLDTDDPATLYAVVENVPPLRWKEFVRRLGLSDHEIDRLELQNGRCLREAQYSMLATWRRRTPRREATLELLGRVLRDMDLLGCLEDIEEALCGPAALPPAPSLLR

B1: murine LTβR:Fc (Fc fusion, mouse, UniProt P50284 31-221, looked up)
chain: QLVPPYRIENQTCWDQDKEYYEPMHDVCCSRCPPGEFVFAVCSRSQDTVCKTCPHNSYNEHWNHLSTCQLCRPCDIVLGFEEVAPCTSDRKAECRCQPGMSCVYLDNECVHCEEERLVLCQPGTEAEVTDEIMDTDVNCVPCKPGHFQNTSSPRARCQPHTRCEIQGLVEAAPGTSYSDTICKNPPEPGAM
notes: range 1-221; Encoded range includes the signal peptide; also called muLTβR:Fc; mouse LTβR:Fc; not shown: Fc region; human IgG1 by the opening sentence of the paragraph, not restated for this construct
B2: p30 (LIGHT), the cell surface HVEM ligand of activated II-23.D7 cells and human T cells (ligand)
chain: MEESVVRPSVFVVDGQTDIPFTRLGRSHRRQSCSVARVGLGLLLLLMGAGLAWQGWFLLQLHWRLGEMVTRLPDGPAGSWEQLIQERRSHEVNPAAHLTGANSSLTGSGGPLLWETQLGLAFLRGLSYHDGALVVTKAGYYYIYSKVQLGGVGCPLGLASTITHGLYKRTPRYPEELELLVSQQSPCGRATSSSRVWWDSSFLGGVVHLEAGEEVVVRVLDERLVRLRDGTRSYFGAFMV
notes: see m1; also called 30 kDa protein; cell surface ligand for HVEM
B3: human HVEM:Fc (Fc of human IgG1) (Fc fusion, UniProt Q92956 39-184, looked up)
chain: LPSCKEDEYPVGSECCPKCSPGYRVKEACGELTGTVCEPCPPGTYIAHLNGLSKCLQCQMCDPAMGLRASRNCSRTENAVCGCSPGHFCIVQDGDHCAACRAYATSSPGQRVQKGGTESQDTLCQNCPPGTFSPNGTLEECQHQTK
notes: range 1-184; Bivalent chimeric protein made with baculovirus vector pVL1392; also called huHVEM:Fc; hu HVEM:Fc; not shown: Fc region of human IgG1
B4: LIGHTt66-FLAG (ligand, not shown: small tags and cut ends)
chain: EMVTRLPDGPAGSWEQLIQERRSHEVNPAAHLTGANSSLTGSGGPLLWETQLGLAFLRGLSYHDGALVVTKAGYYYIYSKVQLGGVGCPLGLASTITHGLYKRTPRYPEELELLVSQQSPCGRATSSSRVWWDSSFLGGVVHLEAGEEVVVRVLDERLVRLRDGTRSYFGAFMV
notes: also called soluble homotrimeric LIGHT; recombinant soluble LIGHT
B5: LIGHT t66 Y173F (ligand, not shown: small tags and cut ends)
chain: B4 chain with Y107F
notes: FLAG-tagged point mutant from transiently transfected 293T cells, homotrimer
B6: LIGHT t66 Q117T (ligand, not shown: small tags and cut ends)
chain: B4 chain with Q51T
notes: FLAG-tagged point mutant from transiently transfected 293T cells, homotrimer; also called Q11TT
B7: LIGHT t66 G119E (ligand, not shown: small tags and cut ends)
chain: B4 chain with G53E
notes: FLAG-tagged point mutant from transiently transfected 293T cells, homotrimer; also called LIGHTG119E; LIGHT-G119E
B8: LIGHT t66 L120Q (ligand, not shown: small tags and cut ends)
chain: B4 chain with L54Q
notes: FLAG-tagged point mutant from transiently transfected 293T cells, homotrimer; also called L12OQ
B9: LTα homotrimer (ligand, UniProt P01374 35-205, looked up)
chain: T1 sequence (looked up) 1

Tests used:
[1] = target: T1, LTα1β2 complex from II-23.D7 cells; experiment: 2D electrophoresis of proteins bound to murine LTβR:Fc, FIG. 4A
TNFR60:Fc = target: T2, TNFR60:Fc; experiment: precipitation from detergent extracts of activated II-23.D7 cells, SDS-PAGE and 2D electrophoresis
Protocol: (§1) The culture supernatants were harvested and the cells lysed in buffer containing 2% NP40, HEPES pH7.0, 20 mM EDTA, 150 mM NaCl with leupeptin and aprotinin (at 10 μg/ml), PMSF (1 mM) and iodoacetamide (20 mM). The extract was precleared with human IgG (10 μg), where indicated, anti-LT antibodies and protein G beads. The receptor:Fc fusion proteins (10 μg/ml) were then added to the samples and precipitated with protein G beads. Labeled proteins were analyzed by reducing SDS-PAGE and phosphoimage (pixel range 6-200).
II-23.D7 cells were activated with PMA (100 ng/ml) or PMA and ionomycin (1 μg/ml) for 2.5 hours, followed by labeling with ³⁵S-methionine and -cysteine as in the above two paragraphs. Cell extracts were pre-cleared with human IgG (5 μg) and protein G beads to remove nonspecifically binding proteins. […] In each case, the beads were washed three times to remove the contaminating proteins in the non-bound fraction.

TNF = TNF (UniProt P01375 77-233); experiment: precipitation of 35S-labelled secreted proteins of activated II-23.D7 cells with receptor:Fc 10 µg/ml and protein G, SDS-PAGE
TNF, sequence (P01375 77-233 limits assumed): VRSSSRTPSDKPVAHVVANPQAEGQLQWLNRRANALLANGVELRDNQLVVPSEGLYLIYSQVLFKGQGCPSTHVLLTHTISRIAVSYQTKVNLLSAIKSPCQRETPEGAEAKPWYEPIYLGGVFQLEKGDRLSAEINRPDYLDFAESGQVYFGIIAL
Protocol: as §1

LTα homotrimer = target: B9; experiment: precipitation of 35S-labelled proteins with receptor:Fc and protein G, SDS-PAGE
[2] = target: B2; experiment: flow cytometry, graded HVEM:Fc on activated II-23.D7 cells
Protocol: II-23.D7 cells were activated for 4 hours at 37° C. with phorbol myristate acetate (PMA) (100 ng/ml), or PMA (100 ng/ml) and ionomycin (1 μg/ml). […] Stained cells were analyzed by flow cytometry (FACSCaliber, Becton-Dickenson). Receptor binding was determined by calculating the fluorescence intensity=(mean fluorescent channel) (% positive fluorescent events), where a positive event has a fluorescence value >98% of the value for normal IgG. Specific fluorescence intensity represents the fluorescence intensity after subtraction of the value for control IgG. Each histogram represents 10₄ events.
murine HVEM:Fc = target: T4, murine HVEM:Fc (mouse; human, UniProt Q80WM9 39-205; P01857 99-330 = IgG part); experiment: ELISA, plate-bound receptor:Fc, M2 anti-FLAG detection
T4 construct: range 1-205;domain: Fc region; Produced in TN5 insect cells, protein A purified, 58 kDa reduced; Encoded range includes the signal peptide; also called muHVEM:Fc; mouse HVEM:Fc
T4 sequence (Q80WM9 other isoform, or with tags, fused parts or gaps): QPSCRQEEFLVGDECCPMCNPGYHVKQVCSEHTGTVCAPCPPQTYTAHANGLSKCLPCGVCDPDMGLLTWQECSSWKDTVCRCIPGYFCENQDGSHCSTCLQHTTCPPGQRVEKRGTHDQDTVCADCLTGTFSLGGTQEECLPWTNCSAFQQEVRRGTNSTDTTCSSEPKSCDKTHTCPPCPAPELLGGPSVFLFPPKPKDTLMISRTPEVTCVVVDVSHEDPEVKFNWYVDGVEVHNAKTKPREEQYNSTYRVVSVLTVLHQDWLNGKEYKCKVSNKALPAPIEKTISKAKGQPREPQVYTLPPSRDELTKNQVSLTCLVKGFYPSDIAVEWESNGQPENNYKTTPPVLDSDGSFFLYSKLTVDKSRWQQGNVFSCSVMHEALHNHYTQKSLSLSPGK
Protocol: (§2) After washing with PBS/0.5% Tween, samples were applied diluted in PBS/3% BSA and incubated for 1 h at RT. After washing wells were incubated with monoclonal anti-FLAG (M2) (10 μg/ml in PBS/BSA) for 1 h at RT, washed and incubated with goat anti-mouse HRP (1:5000) for 1 hr at RT. […] The OD was measured at 415 nm in a SpectraMax plate reader (Molecular Devices Corp., Sunnyvale, Calif.).

murine LTβR:Fc = target: B1; experiment: as above
Protocol: as §2

[3] = target: B3; experiment: SPR (BIAcore 1000), receptor:Fc amine-coupled to CM5 chip, LIGHT as analyte 100-500 nM, 25 C
Protocol: (§3) The sensor surface was equilibrated with PBS (20 mM sodium phosphate/150 mM NaCl, pH 7.4) and sensorgrams were collected at 25° C. and a flow rate of 5 μl/min. […] The sensor surface was regenerated after each cycle with a 10 μl pulse of 10 mM glycine pH 2.0. Sets of 5 analyte concentrations, 100 to 500 nM were collected, and analyzed by nonlinear regression using the BIlAevaluation software (2.1)™. Association and dissociation data were fitted on the basis of the simple AB⇄A+B model.
human LTβR:Fc [4] = target: T5, human LTβR:Fc (human, UniProt P36941 31-227, limits assumed); experiment: as above
T5 construct: Bivalent chimeric protein, previously described; also called huLTβR:Fc; hu LTβR:Fc; not shown: Fc region of human IgG1
T5 sequence (P36941 31-227 limits assumed): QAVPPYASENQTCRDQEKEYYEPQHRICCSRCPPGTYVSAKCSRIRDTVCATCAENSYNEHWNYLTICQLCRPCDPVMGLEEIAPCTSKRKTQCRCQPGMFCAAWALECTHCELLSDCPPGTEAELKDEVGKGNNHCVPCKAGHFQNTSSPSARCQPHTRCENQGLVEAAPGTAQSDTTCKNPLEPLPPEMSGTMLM

LTβR (whole, in cells) = LTβR (whole, in cells) (human, UniProt P36941 31-435); experiment: cell-based or functional assay
[5] = target: B3; experiment: SPR
Protocol: as §3
human LTβR:Fc [6] = target: T5, human LTβR:Fc; experiment: SPR (BIAcore 1000), receptor:Fc amine-coupled to CM5 chip, LIGHT mutant as analyte
Protocol: as §3

[7] = target: B3; experiment: ELISA, plate-bound receptor:Fc, M2 anti-FLAG detection
Protocol: as §2

[8] = target: T3, TNFR1 on normal human dermal fibroblasts; experiment: cell-based or functional assay

Does B1 bind [1]?
Result: binds

Does B2 bind (TNFR60:Fc)?
Result: no binding

Does B3 bind (TNF)?
Result: no binding

Does B3 bind (LTα homotrimer)?
Result: binds

What about the EC50 [2] of the same binder?
The EC50 was about 20 nM.

Which “fold lower affinity than for the human receptor” value (murine HVEM:Fc) does the source give for B4 here?
Its value is 10 fold.

What about the “fold lower affinity than for the human receptor” value (murine LTβR:Fc) of the same binder?
Its value is 10 fold.

And the Kd [3]?
Its Kd is 3.9 nM.

And the koff [3]?
The koff was 4.8e-05 s⁻¹.

And the kon [3]?
The kon was 12000 M⁻¹ s⁻¹.

And the Kd (human LTβR:Fc [4])?
The Kd was 4.5 nM.

What about the koff (human LTβR:Fc [4]) of the same binder?
Its koff is 0.00012 s⁻¹.

What about the kon (human LTβR:Fc [4]) of the same binder?
Its kon is 27000 M⁻¹ s⁻¹.

What about the “IC50 for inhibition of HCMV pp28 expression (western blot)” value (LTβR (whole, in cells)) of the same binder?
The value was about 0.4 nM.

And the “up-regulation of ICAM expression by NHDF cells (flow cytometry, 36 h, 5 nM)” value (LTβR (whole, in cells))?
The value was 4 fold.

Which results are given for B5?
Kd [5]: 180 nM; fold lower affinity than LIGHT t66 [5]: > 40 fold; binding result (murine HVEM:Fc): no binding; binding result (murine LTβR:Fc): no binding; Kd [3]: 173 nM; koff [3]: 0.0033 s⁻¹; kon [3]: 19000 M⁻¹ s⁻¹; Kd (human LTβR:Fc [4]): 31 nM; koff (human LTβR:Fc [4]): 0.0011 s⁻¹; kon (human LTβR:Fc [4]): 37000 M⁻¹ s⁻¹; up-regulation of ICAM expression by NHDF cells (flow cytometry, 36 h, 20 nM) (LTβR (whole, in cells)): 2.5 fold

B6 was tested. Which Kd [3] did it give?
The Kd was 0.3 nM.

What about the koff [3] of the same binder?
Its koff is 5e-06 s⁻¹.

What about the kon [3] of the same binder?
The kon was 20000 M⁻¹ s⁻¹.

What about the Kd (human LTβR:Fc [4]) of the same binder?
Its Kd is 1.5 nM.

What about the koff (human LTβR:Fc [4]) of the same binder?
Its koff is 4.5e-05 s⁻¹.

And the kon (human LTβR:Fc [4])?
The kon was 32000 M⁻¹ s⁻¹.

What does the source list for B7?
fold lower affinity than LIGHT t66 [5]: ~30 fold; binding result (murine HVEM:Fc): no binding; binding result (murine LTβR:Fc): no binding; Kd [3]: 114 nM; koff [3]: 0.002 s⁻¹; kon [3]: 18000 M⁻¹ s⁻¹; binding result (human LTβR:Fc [6]): no binding (tested: 100 to 500 nM); up-regulation of ICAM expression by NHDF cells (flow cytometry, 36 h, 20 nM) (LTβR (whole, in cells)): < 1.5 fold

Which results are given for B8?
binding result [7]: binds; binding result (murine LTβR:Fc): binds

B9 was tested. Which “IC50 for inhibition of HCMV pp28 expression (western blot)” value [8] did it give?
Its value is about 0.01 nM.

And the “anti-viral activity against LTα1β2 and LIGHT (pp28 expression)” value [8]?
The value was at least 40 fold.
